Assay results as given in IntAct's records for PubMed 26305884.

Target: ccyl1_mouse Ccnyl1 (UniProt D3YUJ3)
Sequence (D3YUJ3 whole entry): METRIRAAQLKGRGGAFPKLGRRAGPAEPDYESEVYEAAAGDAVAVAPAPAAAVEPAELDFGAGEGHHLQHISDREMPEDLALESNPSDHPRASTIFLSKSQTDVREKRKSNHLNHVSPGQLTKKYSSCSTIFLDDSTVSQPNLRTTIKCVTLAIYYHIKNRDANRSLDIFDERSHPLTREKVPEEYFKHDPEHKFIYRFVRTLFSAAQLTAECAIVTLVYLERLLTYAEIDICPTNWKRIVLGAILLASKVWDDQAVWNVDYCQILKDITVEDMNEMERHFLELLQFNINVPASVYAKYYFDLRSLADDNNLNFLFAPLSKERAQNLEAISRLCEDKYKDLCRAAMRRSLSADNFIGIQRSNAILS

Chain of Cyclin-dependent kinase 16 (Mus musculus), Q04735 S78A (Q04735 whole entry S78A): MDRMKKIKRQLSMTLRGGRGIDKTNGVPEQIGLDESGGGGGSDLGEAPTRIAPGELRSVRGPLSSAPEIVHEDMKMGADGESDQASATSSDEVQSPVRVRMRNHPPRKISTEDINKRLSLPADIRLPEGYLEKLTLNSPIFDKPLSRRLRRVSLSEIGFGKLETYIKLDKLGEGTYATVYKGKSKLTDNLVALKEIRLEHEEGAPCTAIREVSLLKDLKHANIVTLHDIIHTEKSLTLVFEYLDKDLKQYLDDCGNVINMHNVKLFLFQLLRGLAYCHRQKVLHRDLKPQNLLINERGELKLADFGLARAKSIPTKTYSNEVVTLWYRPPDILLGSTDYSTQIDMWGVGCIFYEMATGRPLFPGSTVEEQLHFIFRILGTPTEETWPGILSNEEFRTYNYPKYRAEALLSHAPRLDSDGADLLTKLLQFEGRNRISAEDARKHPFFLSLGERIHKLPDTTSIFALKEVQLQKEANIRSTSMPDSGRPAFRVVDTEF
Chain of Cyclin-dependent kinase 16 (Mus musculus), Q04735 S119A (Q04735 whole entry S119A): as the sequence (Q04735 whole entry S78A) above, with A78S, S119A counted along it
Chain of Cyclin-dependent kinase 16 (Mus musculus), Q04735 S146A (Q04735 whole entry S146A): as the sequence (Q04735 whole entry S78A) above, with A78S, S146A counted along it
Chain of Cyclin-dependent kinase 16 (Mus musculus), Q04735 S153A (Q04735 whole entry S153A): as the sequence (Q04735 whole entry S78A) above, with A78S, S153A counted along it
Chain of Cyclin-dependent kinase 16 (Mus musculus), Q04735 S110D (Q04735 whole entry S110D): as the sequence (Q04735 whole entry S78A) above, with A78S, S110D counted along it
Chain of Cyclin-dependent kinase 16 (Mus musculus), Q04735 S146D (Q04735 whole entry S146D): as the sequence (Q04735 whole entry S78A) above, with A78S, S146D counted along it
Chain of Cyclin-dependent kinase 16 (Mus musculus), Q04735 S153D (Q04735 whole entry S153D): as the sequence (Q04735 whole entry S78A) above, with A78S, S153D counted along it
Chain of Cyclin-dependent kinase 16 (Mus musculus), Q04735 S110A (Q04735 whole entry S110A): as the sequence (Q04735 whole entry S78A) above, with A78S, S110A counted along it

effect of a mutation on the interaction	Substance
decreasing interaction strength	Cyclin-dependent kinase 16 (Mus musculus), Q04735 S110A
decreasing interaction strength	Cyclin-dependent kinase 16 (Mus musculus), Q04735 S119A
disrupting interaction strength	Cyclin-dependent kinase 16 (Mus musculus), Q04735 P205A;T207A;R210A;E211A
decreasing interaction strength	Cyclin-dependent kinase 16 (Mus musculus), Q04735 S153D
disrupting interaction strength	Cyclin-dependent kinase 16 (Mus musculus), Q04735 S146A
increasing interaction strength	Cyclin-dependent kinase 16 (Mus musculus), Q04735 S78A

The next lines start with the substance.

Substance	effect of a mutation on the interaction
Cyclin-dependent kinase 16 (Mus musculus), Q04735 S146D	disrupting interaction strength
Cyclin-dependent kinase 16 (Mus musculus), Q04735 T175A	decreasing interaction strength
Cyclin-dependent kinase 16 (Mus musculus), Q04735 S153A	increasing interaction strength
Cyclin-dependent kinase 16 (Mus musculus), Q04735 S110D	decreasing interaction strength
Cyclin-dependent kinase 16 (Mus musculus), Q04735 T175D	increasing interaction strength
